B1: Flag-eIF2β, wild type [S. cerevisiae] / eIF2α in yeast whole-cell extracts [yeast (endogenous in yeast whole-cell extracts)] (parent)
chain 1: MSSDLAAELGFDPALKKKKKTKKVIPDDFDAAVNGKENGSGDDLFAGLKKKKKKSKSVSADAEAEKEPTDDIAEALGELSLKKKKKKTKDSSVDAFEKELAKAGLDNVDAESKEGTPSANSSIQQEVGLPYSELLSRFFNILRTNNPELAGDRSGPKFRIPPPVCLRDGKKTIFSNIQDIAEKLHRSPEHLIQYLFAELGTSGSVDGQKRLVIKGKFQSKQMENVLRRYILEYVTCKTCKSINTELKREQSNRLFFMVCKSCGSTRSVSSIKTGFQATVGKRRRM
chain 2: MSTSHCRFYENKYPEIDDIVMVNVQQIAEMGAYVKLLEYDNIEGMILLSELSRRRIRSIQKLIRVGKNDVAVVLRVDKEKGYIDLSKRRVSSEDIIKCEEKYQKSKTVHSILRYCAEKFQIPLEELYKTIAWPLSRKFGHAYEAFKLSIIDETVWEGIEPPSKDVLDELKNYISKRLTPQAVKIRADVEVSCFSYEGIDAIKDALKSAEDMSTEQMQVKVKLVAAPLYVLTTQALDKQKGIEQLESAIEKITEVITKYGGVCNITMPPKAVTATEDAELQALLESKELDNRSDSEDDEDESDDE
B2: Flag-eIF2β, wild type [S. cerevisiae] / eIF2Bε in yeast whole-cell extracts [yeast (endogenous in yeast whole-cell extracts)] (parent)
chain 1: B1 chain 1
chain 2: MAGKKGQKKSGLGNHGKNSDMDVEDRLQAVVLTDSYETRFMPLTAVKPRCLLPLANVPLIEYTLEFLAKAGVHEVFLICSSHANQINDYIENSKWNLPWSPFKITTIMSPEARCTGDVMRDLDNRGIITGDFILVSGDVLTNIDFSKMLEFHKKMHLQDKDHISTMCLSKASTYPKTRTIEPAAFVLDKSTSRCIYYQDLPLPSSREKTSIQIDPELLDNVDEFVIRNDLIDCRIDICTSHVPLIFQENFDYQSLRTDFVKGVISSDILGKHIYAYLTDEYAVRVESWQTYDTISQDFLGRWCYPLVLDSNIQDDQTYSYESRHIYKEKDVVLAQSCKIGKCTAIGSGTKIGEGTKIENSVIGRNCQIGENIRIKNSFIWDDCIIGNNSIIDHSLIASNATLGSNVRLNDGCIIGFNVKIDDNMDLDRNTKISASPLKNAGSRMYDNESNEQFDQDLDDQTLAVSIVGDKGVGYIYESEVSDDEDSSTEACKEINTLSNQLDELYLSDDSISSATKKTKKRRTMSVNSIYTDREEIDSEFEDEDFEKEGIATVERAMENNHDLDTALLELNTLRMSMNVTYHEVRIATITALLRRVYHFIATQTLGPKDAVVKVFNQWGLLFKRQAFDEEEYIDLMNIIMEKIVEQSFDKPDLILFSALVSLYDNDIIEEDVIYKWWDNVSTDPRYDEVKKLTVKWVEWLQNADEESSSEEE

Variants of: B1
Assay: co-immunoprecipitation with FLAG affinity resin, quantified western
Details: three biological replicates, read off a plot

response	Variant
0.94 eIF2α:eIF2β	chain 1 F217A Q221A
0.96 eIF2α:eIF2β	chain 1 S202A K214A

Variants of: B2
Assay: as above
Details: three biological replicates, read off a plot

response	Variant
0.63 eIF2Bε:eIF2β	chain 1 F217A Q221A
0.84 eIF2Bε:eIF2β	chain 1 S202A K214A

From paper PMC4534855 (2015)
